Laboratory results taken from the supplement of paper PMC10126150.
± gives the standard deviation of the averaged measurements.

Tested on: ATP
Assay: switch fluorescence ratio, 500 uM ATP over buffer (Cy3 cluster intensity, sum of 5 cycles each) (fold (ratio)); higher = stronger signal-on switching upon ATP binding; sequences stand for … in TCGTCGGCAGCGTCAGATGTGTATAAGAGACAGTTTTTTTTTTTTTTTTTTTTTTTTT…TC
Details: aptamer strand: ATP DNA aptamer (quencher-CACCTGGGGGAGTATTGCGGAGGAAGG + anchor), 100 nM annealed; ATP concentration: 500 uM
Method in brief: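 Five buffer/ATP imaging cycles were run on Cy3-labelled switching-strand clusters on a modified Illumina MiSeq flow-cell, with NaOH stripping and re-annealing between cycles. In each cycle, clusters annealed to 100 nM quencher-labelled ATP aptamer were imaged in selection buffer, then after 15 min with 500 uM ATP at 22 °C. Per cluster, the fluorescence ratio is summed target-cycle over summed buffer-cycle Cy3 intensity, averaged per switch-domain sequence. Only clusters within 100-1000 RFU were kept.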
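Note: ATP exposure 15 min at 22 °C before imaging.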

Sequence | switch fluorescence ratio
TTGACATGGG | 1 ± 0.029
TTGACGGGAG | 0.997 ± 0.027
TTGACGTAAA | 1.61 ± 0.56
TTGACGTTGC | 1.01 ± 0.033
TTGAGAATCC | 1.007 ± 0.0087
TTGAGAGATT | 1.011 ± 0.0091
TTGAGAGGAG | 0.98 ± 0.02
TTGAGATTAT | 0.986 ± 0.015
TTGAGATTGG | 0.998 ± 0.03
TTGAGCACGG | 0.998 ± 0.019
TTGAGCAGCT | 1.08 ± 0.085
TTGAGGCAGG | 1.027 ± 0.0065
TTGAGGCCCA | 1.17 ± 0.22
TTGAGGCCTT | 1.01 ± 0.022
TTGAGGGCTT | 0.998 ± 0.025
TTGAGGGGAT | 1.004 ± 0.0059
TTGAGGGTCC | 1.004 ± 0.0056
TTGAGGTACG | 1.03 ± 0.082
TTGAGGTTA | 1.07 ± 0.069
TTGAGTGTGT | 0.9604 ± 0.0023
TTGAGTTAC | 1.03 ± 0.06
TTGAGTTTTA | 1.01 ± 0.021
TTGATAAAAA | 0.998 ± 0.083
TTGATAAGTT | 0.9751 ± 0.0069
TTGATAATCT | 1 ± 0.026

Sequence | switch fluorescence ratio
TTGATACAGG | 1.29 ± 0.37
TTGATCAGGG | 0.989 ± 0.042
TTGATCCAGT | 0.997 ± 0.031
TTGATCTCGG | 1.014 ± 0.0061
TTGATCTCTT | 1.01 ± 0.026
TTGATGCGGT | 1.04 ± 0.042
TTGATTAATT | 0.9925 ± 0.0099
TTGATTAGTA | 0.97 ± 0.028
TTGATTCATG | 0.999 ± 0.04
TTGATTGACA | 1 ± 0.043
TTGATTGATT | 0.9916 ± 0.0055
TTGATTTAAT | 1 ± 0.028
TTGATTTCAG | 1.01 ± 0.013
TTGCAAATTT | 1.79 ± 1.4
TTGCAATTCG | 3.05 ± 2.5
TTGCAGATTT | 0.985 ± 0.028
TTGCAGTAAT | 1.87 ± 1.1
TTGCATGGGA | 0.992 ± 0.018
TTGCCACTGA | 1.02 ± 0.013
TTGCCATTGG | 0.9905 ± 0.0062
TTGCCGTGTA | 1.02 ± 0.031
TTGCCTTTCG | 0.97 ± 0.041
TTGCGCCGC | 1.138 ± 0.0037
TTGCGCGCTA | 0.98 ± 0.054
TTGCGCTATT | 1.07 ± 0.018

Sequence | switch fluorescence ratio
TTGCGGGGTT | 1.14 ± 0.15
TTGCGGTATG | 0.986 ± 0.022
TTGCGTGGTG | 0.959 ± 0.077
TTGCGTTTGA | 1.008 ± 0.005
TTGCGTTTTG | 0.991 ± 0.057
TTGCTAAAGC | 1.038 ± 0.0054
TTGCTACTGT | 0.983 ± 0.018
TTGCTCCTGT | 0.9965 ± 0.0019
TTGCTCTGGG | 0.974 ± 0.019
TTGCTCTGTT | 0.988 ± 0.023
TTGCTGGAAT | 1.06 ± 0.095
TTGCTGTTTG | 1 ± 0.034
TTGCTTAAAA | 0.9852 ± 0.0095
TTGCTTACAT | 1.02 ± 0.021
TTGCTTCCGT | 1.1 ± 0.084
TTGCTTTGGG | 1.01 ± 0.018
TTGCTTTGTT | 1.0015 ± 0.001
TTGGAAAAT | 0.967 ± 0.013
TTGGAAGGAC | 1.03 ± 0.013
TTGGAAGGGA | 1 ± 0.015
TTGGAATAGA | 0.999 ± 0.05
TTGGAATGTT | 0.952 ± 0.043
TTGGAATTTA | 1 ± 0.016
TTGGACATGC | 1.06 ± 0.14
TTGGAGACGG | 1.023 ± 0.0012

Sequence | switch fluorescence ratio
TTGGAGAGAA | 0.974 ± 0.022
TTGGAGGGAG | 0.999 ± 0.043
TTGGAGGGGG | 1.01 ± 0.039
TTGGAGGGTG | 1.005 ± 0.01
TTGGAGGTTA | 0.973 ± 0.017
TTGGAGTGTT | 0.999 ± 0.026
TTGGAGTTTT | 1.01 ± 0.038
TTGGATGAAA | 1.03 ± 0.076
TTGGATGGAA | 0.984 ± 0.023
TTGGATGTAC | 1.14 ± 0.15
TTGGATGTTG | 1.01 ± 0.034
TTGGATTTAG | 0.998 ± 0.0044
TTGGATTTTC | 1.04 ± 0.032
TTGGCACAGT | 1.008 ± 0.0048
TTGGCAGGCC | 1.017 ± 0.0074
TTGGCGGGGA | 0.987 ± 0.054
TTGGCGGGTT | 1.008 ± 0.0062
TTGGCTACAA | 0.985 ± 0.037
TTGGCTGTGC | 1.02 ± 0.019
TTGGCTTCAT | 0.968 ± 0.016
TTGGCTTTAT | 0.982 ± 0.04
TTGGGAAATG | 0.985 ± 0.042
TTGGGAAGGG | 1 ± 0.032
TTGGGAAGTT | 1.02 ± 0.031
TTGGGAATCC | 1.03 ± 0.12

Sequence | switch fluorescence ratio
TTGGGACAGC | 1.003 ± 0.0014
TTGGGACTGG | 1.12 ± 0.14
TTGGGAGGAT | 1.12 ± 0.2
TTGGGAGTAC | 0.942 ± 0.059
TTGGGATAGG | 1.01 ± 0.029
TTGGGATCCG | 0.985 ± 0.016
TTGGGATGGT | 1.02 ± 0.029
TTGGGATTAA | 1.05 ± 0.053
TTGGGATTCT | 0.979 ± 0.019
TTGGGCAGTT | 0.98 ± 0.051
TTGGGCATCT | 1.003 ± 0.0031
TTGGGCCACG | 0.983 ± 0.011
TTGGGCCATG | 1.05 ± 0.027
TTGGGCCCCT | 0.9967 ± 0.0024
TTGGGCCCGG | 0.9878 ± 0.0073
TTGGGCGAAT | 0.988 ± 0.021
TTGGGCGCAT | 0.99 ± 0.025
TTGGGCGGTT | 1.13 ± 0.25
TTGGGCGTTC | 1.12 ± 0.15
TTGGGCTAAT | 0.994 ± 0.029
TTGGGGAA | 0.985 ± 0.025
TTGGGGAACC | 0.9866 ± 0.009
TTGGGGAAG | 0.9853 ± 0.0061
TTGGGGACGG | 1 ± 0.038
TTGGGGAGGC | 0.9835 ± 0.0015

Sequence | switch fluorescence ratio
TTGGGGAGGG | 1.02 ± 0.05
TTGGGGAGTG | 0.988 ± 0.017
TTGGGGATGA | 1.01 ± 0.016
TTGGGGATTT | 0.997 ± 0.029
TTGGGGCAGC | 0.995 ± 0.013
TTGGGGCAGT | 0.997 ± 0.035
TTGGGGCGGG | 1.01 ± 0.039
TTGGGGGAAA | 1 ± 0.02
TTGGGGGCA | 1.03 ± 0.045
TTGGGGGCGC | 1.01 ± 0.031
TTGGGGGCGT | 1.03 ± 0.058
TTGGGGGGA | 0.997 ± 0.048
TTGGGGGGCA | 1.32 ± 0.65
TTGGGGGGTC | 1 ± 0.034
TTGGGGGTAA | 0.987 ± 0.018
TTGGGGGTGA | 1 ± 0.042
TTGGGGGTTG | 1 ± 0.044
TTGGGGGTTT | 1.02 ± 0.036
TTGGGGTAAA | 1.03 ± 0.044
TTGGGGTAAG | 0.971 ± 0.03
TTGGGGTCGA | 0.951 ± 0.04
TTGGGGTGCC | 1.01 ± 0.018
TTGGGGTGTT | 1 ± 0.031
TTGGGGTTTC | 0.998 ± 0.033
TTGGGTAGAA | 0.986 ± 0.045

Sequence | switch fluorescence ratio
TTGGGTCAGG | 1.02 ± 0.028
TTGGGTGAGT | 1.01 ± 0.014
TTGGGTGGCA | 1.03 ± 0.039
TTGGGTTAAC | 0.9737 ± 0.006
TTGGGTTCCC | 1.01 ± 0.05
TTGGGTTGCG | 0.964 ± 0.035
TTGGGTTGGA | 0.996 ± 0.017
TTGGGTTTAC | 1.02 ± 0.049
TTGGGTTTCA | 0.995 ± 0.053
TTGGTACTGA | 1.04 ± 0.049
TTGGTAGATT | 0.984 ± 0.047
TTGGTAGGTG | 1.04 ± 0.058
TTGGTCAAAT | 1.04 ± 0.022
TTGGTCAAGG | 0.995 ± 0.045
TTGGTCGCGG | 0.97078 ± 5.7e-05
TTGGTCGGGT | 1.02 ± 0.024
TTGGTCTATG | 0.986 ± 0.027
TTGGTCTTTT | 0.976 ± 0.012
TTGGTGACGC | 1.01 ± 0.026
TTGGTGATGT | 0.994 ± 0.044
TTGGTGGCGT | 0.995 ± 0.01
TTGGTGGGAA | 1 ± 0.025
TTGGTGGTTG | 0.993 ± 0.029
TTGGTGTAAG | 1.0001 ± 0.00079
TTGGTGTCAG | 1.02 ± 0.018

Sequence | switch fluorescence ratio
TTGGTGTCGG | 0.974 ± 0.036
TTGGTGTTCT | 1.08 ± 0.039
TTGGTTACAC | 1.006 ± 0.0013
TTGGTTACAT | 0.994 ± 0.013
TTGGTTGTAA | 1.03 ± 0.059
TTGGTTTGAG | 1.016 ± 0.0031
TTGGTTTGTT | 0.982 ± 0.018
TTGGTTTTAT | 1.02 ± 0.014
TTGGTTTTTG | 1 ± 0.037
TTGTAAAATA | 0.978 ± 0.058
TTGTAAATGA | 1.02 ± 0.015
TTGTAAGATC | 1.02 ± 0.029
TTGTAAGGGG | 1.009 ± 0.0031
TTGTAAGTT | 0.99664 ± 0.00012
TTGTAATTCT | 1.167 ± 0.0018
TTGTACCATA | 1.1 ± 0.071
TTGTAGAATG | 0.9821 ± 0.0066
TTGTAGCACG | 1.07 ± 0.037
TTGTAGGGCC | 1.03 ± 0.022
TTGTAGTCGG | 1 ± 0.053
TTGTATAAA | 1 ± 0.022
TTGTATACCT | 1.17 ± 0.02
TTGTATAGGA | 0.998 ± 0.029
TTGTATGAGT | 0.986 ± 0.025
TTGTATGGGG | 0.984 ± 0.033
